# Columns and labels:
# alpha-thrombin [1] = target: T1, alpha-thrombin (Homo sapiens, UniProt P00734;P00734 P00734:328-363,P00734:364-622); assay: 3MI signal of streptavidin-aptamer complex; AlexaFluor 430 up 1.9-fold
# [2] = target: PDGF-BB (platelet-derived growth factor B homodimer) (UniProt P01127 P01127:82-190); assay: saturating protein; settings: chain copies: 2 stated, three-helix junction
# alpha-thrombin [3] = target: T1, alpha-thrombin; assay: 3MI signal, 350 nm excitation; AlexaFluor 430 FRET signal up 2.9-fold
# alpha-thrombin [4] = target: T1, alpha-thrombin; assay: 6MAP fluorescence at saturating protein
# alpha-thrombin [5] = target: T1, alpha-thrombin; assay: 3MI fluorescence at saturating protein
# PDGF-BB (platelet-derived growth factor B homodimer), sequence (P01127 82-190, one chain of several): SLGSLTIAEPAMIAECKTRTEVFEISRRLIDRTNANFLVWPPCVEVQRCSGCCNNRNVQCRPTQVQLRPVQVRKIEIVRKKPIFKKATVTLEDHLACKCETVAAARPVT
binder,measurement,setting,value
"GGTTGGTGTGGTTGG (ssDNA, n at position 7 is 3-methylisoxanthopterin; 5' 40-atom linker [7 (3-methylisoxanthopterin replacing T); 5' 40-atom linker with biotin left out]) [thrombin aptamer 3MI-7 biotin]",binding signal,alpha-thrombin [1],~7.1 fold fluorescence increase
"CACAGGCTACGGCACGTAGAGCATCACCATGATCCTGTG (ssDNA, n at position 22 is 6MAP replacing C [22 (6MAP replacing C)]) [PDGF-B aptamer 6MAP-22]",binding signal,[2]; label: 6MAP,6.7 fold fluorescence increase
"CACAGGCTACGGCACGTAGAGCATCACCATGATCCTGTG (ssDNA, n at position 22 is 3-methylisoxanthopterin replacing C [22 (3-methylisoxanthopterin replacing C)]) [PDGF-B aptamer 3MI-22]",binding signal,[2]; label: 3MI,2.5 fold fluorescence increase
"GGTTGGTGTGGTTGG (ssDNA, n at position 7 is 3-methylisoxanthopterin; 5' 21-atom amino linker [7 (3-methylisoxanthopterin replacing T); 5' 21-atom amino linker with AlexaFluor 430 left out]) [thrombin aptamer 3MI-7 AlexaFluor 430]",binding signal,alpha-thrombin [3],~7.5 fold fluorescence increase
"GGTTGGTGTGGTTGG (ssDNA, n at position 7 is 4-amino-6-methyl-pteridone (6MAP) replacing T [7 (6MAP replacing T)]) [thrombin aptamer 6MAP-7]",binding signal,alpha-thrombin [4],32.9 fold fluorescence increase
"GGTTGGTGTGGTTGG (ssDNA, n at position 7 is 3-methylisoxanthopterin replacing T [7 (3-methylisoxanthopterin replacing T)]) [thrombin aptamer 3MI-7]",binding signal,alpha-thrombin [5],9.7 fold fluorescence increase

# Source: US20090054250, “Methods to create fluorescent biosensors using aptamers with fluorescent base analogs” (published 2009)
